The record followed here is US20130157953A1, “TREATMENT OF CARDIAC CONDITIONS” (Zealand Pharma A/S, priority 2010, published 2013).

B1: Compound 44 (peptide)
peptide: H-H[dS]QGTFTSDYSKYLDSKAAHDFVEWLLRA-NH2
SMILES: CC(C)C[C@H](NC(=O)[C@H](CC(C)C)NC(=O)[C@H](Cc1c[nH]c2ccccc12)NC(=O)[C@H](CCC(=O)O)NC(=O)[C@@H](NC(=O)[C@H](Cc1ccccc1)NC(=O)[C@H](CC(=O)O)NC(=O)[C@H](Cc1c[nH]cn1)NC(=O)[C@H](C)NC(=O)[C@H](C)NC(=O)[C@H](CCCCN)NC(=O)[C@H](CO)NC(=O)[C@H](CC(=O)O)NC(=O)[C@H](CC(C)C)NC(=O)[C@H](Cc1ccc(O)cc1)NC(=O)[C@H](CCCCN)NC(=O)[C@H](CO)NC(=O)[C@H](Cc1ccc(O)cc1)NC(=O)[C@H](CC(=O)O)NC(=O)[C@H](CO)NC(=O)[C@@H](NC(=O)[C@H](Cc1ccccc1)NC(=O)[C@@H](NC(=O)CNC(=O)[C@H](CCC(N)=O)NC(=O)[C@@H](CO)NC(=O)[C@@H](N)Cc1c[nH]cn1)[C@@H](C)O)[C@@H](C)O)C(C)C)C(=O)N[C@@H](CCCNC(=N)N)C(=O)N[C@@H](C)C(N)=O
B2: Compound 45 (peptide)
peptide: H-H[Aib]QGTFTSDYSKYLDSKAAHDFVEWLLRA-NH2
SMILES: CC(C)C[C@H](NC(=O)[C@H](CC(C)C)NC(=O)[C@H](Cc1c[nH]c2ccccc12)NC(=O)[C@H](CCC(=O)O)NC(=O)[C@@H](NC(=O)[C@H](Cc1ccccc1)NC(=O)[C@H](CC(=O)O)NC(=O)[C@H](Cc1c[nH]cn1)NC(=O)[C@H](C)NC(=O)[C@H](C)NC(=O)[C@H](CCCCN)NC(=O)[C@H](CO)NC(=O)[C@H](CC(=O)O)NC(=O)[C@H](CC(C)C)NC(=O)[C@H](Cc1ccc(O)cc1)NC(=O)[C@H](CCCCN)NC(=O)[C@H](CO)NC(=O)[C@H](Cc1ccc(O)cc1)NC(=O)[C@H](CC(=O)O)NC(=O)[C@H](CO)NC(=O)[C@@H](NC(=O)[C@H](Cc1ccccc1)NC(=O)[C@@H](NC(=O)CNC(=O)[C@H](CCC(N)=O)NC(=O)C(C)(C)NC(=O)[C@@H](N)Cc1c[nH]cn1)[C@@H](C)O)[C@@H](C)O)C(C)C)C(=O)N[C@@H](CCCNC(=N)N)C(=O)N[C@@H](C)C(N)=O
B3: Compound 261 (peptide)
peptide: H-HSQGTFTSDYSKYLDSKAAHDFVEWLLKA-NH2
modifications: lactam 24-28
SMILES: CC(C)C[C@@H]1NC(=O)[C@H](CC(C)C)NC(=O)[C@H](Cc2c[nH]c3ccccc23)NC(=O)[C@@H](NC(=O)[C@@H](NC(=O)[C@H](Cc2ccccc2)NC(=O)[C@H](CC(=O)O)NC(=O)[C@H](Cc2c[nH]cn2)NC(=O)[C@H](C)NC(=O)[C@H](C)NC(=O)[C@H](CCCCN)NC(=O)[C@H](CO)NC(=O)[C@H](CC(=O)O)NC(=O)[C@H](CC(C)C)NC(=O)[C@H](Cc2ccc(O)cc2)NC(=O)[C@H](CCCCN)NC(=O)[C@H](CO)NC(=O)[C@H](Cc2ccc(O)cc2)NC(=O)[C@H](CC(=O)O)NC(=O)[C@H](CO)NC(=O)[C@@H](NC(=O)[C@H](Cc2ccccc2)NC(=O)[C@@H](NC(=O)CNC(=O)[C@H](CCC(N)=O)NC(=O)[C@H](CO)NC(=O)[C@@H](N)Cc2c[nH]cn2)[C@@H](C)O)[C@@H](C)O)C(C)C)CCC(=O)NCCCC[C@@H](C(=O)N[C@@H](C)C(N)=O)NC1=O
B4: Compound 208 (peptide)
peptide: H-H[Aib]QGTFTSDYSKYLDSK([γGlu-Palmitoyl])AAHDFVEWLLSA-NH2
SMILES: CCCCCCCCCCCCCCCC(=O)N[C@@H](CCC(=O)NCCCC[C@H](NC(=O)[C@H](CO)NC(=O)[C@H](CC(=O)O)NC(=O)[C@H](CC(C)C)NC(=O)[C@H](Cc1ccc(O)cc1)NC(=O)[C@H](CCCCN)NC(=O)[C@H](CO)NC(=O)[C@H](Cc1ccc(O)cc1)NC(=O)[C@H](CC(=O)O)NC(=O)[C@H](CO)NC(=O)[C@@H](NC(=O)[C@H](Cc1ccccc1)NC(=O)[C@@H](NC(=O)CNC(=O)[C@H](CCC(N)=O)NC(=O)C(C)(C)NC(=O)[C@@H](N)Cc1c[nH]cn1)[C@@H](C)O)[C@@H](C)O)C(=O)N[C@@H](C)C(=O)N[C@@H](C)C(=O)N[C@@H](Cc1c[nH]cn1)C(=O)N[C@@H](CC(=O)O)C(=O)N[C@@H](Cc1ccccc1)C(=O)N[C@H](C(=O)N[C@@H](CCC(=O)O)C(=O)N[C@@H](Cc1c[nH]c2ccccc12)C(=O)N[C@@H](CC(C)C)C(=O)N[C@@H](CC(C)C)C(=O)N[C@@H](CO)C(=O)N[C@@H](C)C(N)=O)C(C)C)C(=O)O
B5: Compound 207 (peptide)
peptide: H-H[Aib]QGTFTSDYSKYLDSK([γGlu-Palmitoyl])AARDFVAWLLRA-NH2
SMILES: CCCCCCCCCCCCCCCC(=O)N[C@@H](CCC(=O)NCCCC[C@H](NC(=O)[C@H](CO)NC(=O)[C@H](CC(=O)O)NC(=O)[C@H](CC(C)C)NC(=O)[C@H](Cc1ccc(O)cc1)NC(=O)[C@H](CCCCN)NC(=O)[C@H](CO)NC(=O)[C@H](Cc1ccc(O)cc1)NC(=O)[C@H](CC(=O)O)NC(=O)[C@H](CO)NC(=O)[C@@H](NC(=O)[C@H](Cc1ccccc1)NC(=O)[C@@H](NC(=O)CNC(=O)[C@H](CCC(N)=O)NC(=O)C(C)(C)NC(=O)[C@@H](N)Cc1c[nH]cn1)[C@@H](C)O)[C@@H](C)O)C(=O)N[C@@H](C)C(=O)N[C@@H](C)C(=O)N[C@@H](CCCNC(=N)N)C(=O)N[C@@H](CC(=O)O)C(=O)N[C@@H](Cc1ccccc1)C(=O)N[C@H](C(=O)N[C@@H](C)C(=O)N[C@@H](Cc1c[nH]c2ccccc12)C(=O)N[C@@H](CC(C)C)C(=O)N[C@@H](CC(C)C)C(=O)N[C@@H](CCCNC(=N)N)C(=O)N[C@@H](C)C(N)=O)C(C)C)C(=O)O
B6: Compound 203 (peptide)
peptide: H-HSQGTFTSDYSKYLDSKAAHDFVEWLK([γGlu-Palmitoyl])RA-NH2
SMILES: CCCCCCCCCCCCCCCC(=O)N[C@@H](CCC(=O)NCCCC[C@H](NC(=O)[C@H](CC(C)C)NC(=O)[C@H](Cc1c[nH]c2ccccc12)NC(=O)[C@H](CCC(=O)O)NC(=O)[C@@H](NC(=O)[C@H](Cc1ccccc1)NC(=O)[C@H](CC(=O)O)NC(=O)[C@H](Cc1c[nH]cn1)NC(=O)[C@H](C)NC(=O)[C@H](C)NC(=O)[C@H](CCCCN)NC(=O)[C@H](CO)NC(=O)[C@H](CC(=O)O)NC(=O)[C@H](CC(C)C)NC(=O)[C@H](Cc1ccc(O)cc1)NC(=O)[C@H](CCCCN)NC(=O)[C@H](CO)NC(=O)[C@H](Cc1ccc(O)cc1)NC(=O)[C@H](CC(=O)O)NC(=O)[C@H](CO)NC(=O)[C@@H](NC(=O)[C@H](Cc1ccccc1)NC(=O)[C@@H](NC(=O)CNC(=O)[C@H](CCC(N)=O)NC(=O)[C@H](CO)NC(=O)[C@@H](N)Cc1c[nH]cn1)[C@@H](C)O)[C@@H](C)O)C(C)C)C(=O)N[C@@H](CCCNC(=N)N)C(=O)N[C@@H](C)C(N)=O)C(=O)O
B7: Compound 262 (peptide)
peptide: H-HSQGTFTSDYSKYLDSK([γGlu-Palmitoyl])AAHDFVEWLLRA-NH2
SMILES: CCCCCCCCCCCCCCCC(=O)N[C@@H](CCC(=O)NCCCC[C@H](NC(=O)[C@H](CO)NC(=O)[C@H](CC(=O)O)NC(=O)[C@H](CC(C)C)NC(=O)[C@H](Cc1ccc(O)cc1)NC(=O)[C@H](CCCCN)NC(=O)[C@H](CO)NC(=O)[C@H](Cc1ccc(O)cc1)NC(=O)[C@H](CC(=O)O)NC(=O)[C@H](CO)NC(=O)[C@@H](NC(=O)[C@H](Cc1ccccc1)NC(=O)[C@@H](NC(=O)CNC(=O)[C@H](CCC(N)=O)NC(=O)[C@H](CO)NC(=O)[C@@H](N)Cc1c[nH]cn1)[C@@H](C)O)[C@@H](C)O)C(=O)N[C@@H](C)C(=O)N[C@@H](C)C(=O)N[C@@H](Cc1c[nH]cn1)C(=O)N[C@@H](CC(=O)O)C(=O)N[C@@H](Cc1ccccc1)C(=O)N[C@H](C(=O)N[C@@H](CCC(=O)O)C(=O)N[C@@H](Cc1c[nH]c2ccccc12)C(=O)N[C@@H](CC(C)C)C(=O)N[C@@H](CC(C)C)C(=O)N[C@@H](CCCNC(=N)N)C(=O)N[C@@H](C)C(N)=O)C(C)C)C(=O)O
B8: Compound 202 (peptide)
peptide: H-HSQGTFTSDYSKYLDK([γGlu-Palmitoyl])KAAHDFVEWLLRA-NH2
SMILES: CCCCCCCCCCCCCCCC(=O)N[C@@H](CCC(=O)NCCCC[C@H](NC(=O)[C@H](CC(=O)O)NC(=O)[C@H](CC(C)C)NC(=O)[C@H](Cc1ccc(O)cc1)NC(=O)[C@H](CCCCN)NC(=O)[C@H](CO)NC(=O)[C@H](Cc1ccc(O)cc1)NC(=O)[C@H](CC(=O)O)NC(=O)[C@H](CO)NC(=O)[C@@H](NC(=O)[C@H](Cc1ccccc1)NC(=O)[C@@H](NC(=O)CNC(=O)[C@H](CCC(N)=O)NC(=O)[C@H](CO)NC(=O)[C@@H](N)Cc1c[nH]cn1)[C@@H](C)O)[C@@H](C)O)C(=O)N[C@@H](CCCCN)C(=O)N[C@@H](C)C(=O)N[C@@H](C)C(=O)N[C@@H](Cc1c[nH]cn1)C(=O)N[C@@H](CC(=O)O)C(=O)N[C@@H](Cc1ccccc1)C(=O)N[C@H](C(=O)N[C@@H](CCC(=O)O)C(=O)N[C@@H](Cc1c[nH]c2ccccc12)C(=O)N[C@@H](CC(C)C)C(=O)N[C@@H](CC(C)C)C(=O)N[C@@H](CCCNC(=N)N)C(=O)N[C@@H](C)C(N)=O)C(C)C)C(=O)O

Numbered stars: 1 amine (or outer) side, 2 acyl side, 3 side chain; on linkers, the order of the positions; unused ones are H or OH. Bridge positions count the residues as written; N and C are the ends. Square brackets hold non-standard residues; d marks the D form. Side chains are listed from the residue outwards. * marks the point of attachment. γGlu = O=C(O)[C@H](CCC(=O)[*:2])N[*:1]; Palmitoyl = CCCCCCCCCCCCCCCC(=O)*; Aib = CC(C)(N)C(=O)O

Chain of human glucagon receptor (Glucagon-R) (P47871 26-477): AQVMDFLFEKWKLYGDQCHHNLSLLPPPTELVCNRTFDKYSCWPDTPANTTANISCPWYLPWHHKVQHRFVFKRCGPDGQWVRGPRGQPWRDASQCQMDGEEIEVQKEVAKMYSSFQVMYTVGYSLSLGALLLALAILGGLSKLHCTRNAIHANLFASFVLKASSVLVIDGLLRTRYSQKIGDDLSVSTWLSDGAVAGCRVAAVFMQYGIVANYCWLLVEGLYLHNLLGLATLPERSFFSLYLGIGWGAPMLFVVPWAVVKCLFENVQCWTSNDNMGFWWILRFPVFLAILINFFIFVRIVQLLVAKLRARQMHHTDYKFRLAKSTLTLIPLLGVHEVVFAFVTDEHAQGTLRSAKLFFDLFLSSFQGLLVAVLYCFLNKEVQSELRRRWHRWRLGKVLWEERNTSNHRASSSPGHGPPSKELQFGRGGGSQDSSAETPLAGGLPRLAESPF

The first test addresses human glucagon-like peptide 1 receptor (GLP-1R) (human, UniProt P43220 24-463). Put plainly: cell-based or functional assay.
Consider H-HSQGTFTSDYSAYLDSRRAQDFVWLMNT-NH2 [Compound 242], for which the “EC50 (nM) GLP-1R; cAMP content, HEK293 cells expressing human GLP-1R” value (shortened to “EC50 (nM) GLP-1R; cAMP content”) turned out to be 1.4 nM.

In the case of B1, the “EC50 (nM) GLP-1R; cAMP content” value is 0.09 nM.

Take B2: the “EC50 (nM) GLP-1R; cAMP content” value turned out to be 0.08 nM.

For the molecule B3, the “EC50 (nM) GLP-1R; cAMP content” value is 0.03 nM.

Consider B4, for which the “EC50 (nM) GLP-1R; cAMP content” value is 0.11 nM.

As to B5, the “EC50 (nM) GLP-1R; cAMP content” value is 0.12 nM.

With B6, the “EC50 (nM) GLP-1R; cAMP content” value is 0.57 nM.

In the case of B7, the “EC50 (nM) GLP-1R; cAMP content” value was 0.11 nM.

On to B8, for which the “EC50 (nM) GLP-1R; cAMP content” value came to 0.2 nM.

The next test concerns the target human glucagon receptor (Glucagon-R) (human, UniProt P47871 26-477). Put plainly: cell-based or functional assay.
As to H-HSQGTFTSDYSAYLDSRRAQDFVWLMNT-NH2 [Compound 242], the “EC50 (nM) GuR; cAMP content, HEK293 cells expressing the human glucagon receptor” value (from here on “EC50 (nM) GuR; cAMP content”) amounted to 0.4 nM.

For B1, the “EC50 (nM) GuR; cAMP content” value stood at 0.11 nM.

B2: the “EC50 (nM) GuR; cAMP content” value turned out to be 0.06 nM.

As for B3, the “EC50 (nM) GuR; cAMP content” value was determined as 0.07 nM.

Regarding B4, the “EC50 (nM) GuR; cAMP content” value stood at 0.16 nM.

For B5, the “EC50 (nM) GuR; cAMP content” value came out at 0.17 nM.

Take B6: the “EC50 (nM) GuR; cAMP content” value is 0.22 nM.

On to B7, for which the “EC50 (nM) GuR; cAMP content” value came to 0.12 nM.

In the case of B8, the “EC50 (nM) GuR; cAMP content” value amounted to 0.13 nM.
